Reference: patent US20240158831A1 (PROMEGA, published 2024)
Residue numbers refer to the chain shown, from its start. Names may count otherwise.

B1: OgLuc variant C1+A4E, HQHQHQ N-terminally tagged (enzyme)
chain: HQHQHQMVFTLEDFVGDWRQTAGYNQDQVLEQGGLSSLFQKLGVSVTPIQKIVLSGENGLKFDIHVIIPYEGLSGFQMGLIEMIFKVVYPVDDHHFKIILHYGTLVIDGVTPNMIDYFGRPYEGIAVFDGKKITVTGTLWNGNKIIDERLINPDGSLLFRVTINGVTGWRLCERILA
notes: Purified from E. coli KRX with the HISLINK system
B2: OgLuc variant 9B8, HQHQHQ N-terminally tagged (enzyme)
chain: B1 chain with Q26L, F62I, F76Y, L80Q, M83K, I98V
notes: as for B1
B3: OgLuc variant L27V (9B8 opt+K33N+L27V+T39T+K43R+Y68D) (enzyme)
chain: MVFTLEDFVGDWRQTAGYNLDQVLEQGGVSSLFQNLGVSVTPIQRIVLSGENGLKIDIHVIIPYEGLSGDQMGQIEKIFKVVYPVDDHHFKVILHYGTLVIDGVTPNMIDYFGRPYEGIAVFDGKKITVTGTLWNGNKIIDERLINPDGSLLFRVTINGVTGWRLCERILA
notes: Expressed as a HaloTag fusion (pFN18A) in E. coli KRX and purified with the HaloTag Protein Purification System; It eluted as a 24 kDa protein

Biological target: the molecule itself
Experiment: gel filtration chromatography (Superdex 200 5/150 GL), self-association
Text: Gel filtration analysis was used to verify the expected molecular weight of the purified OgLuc proteins based on the theoretical values and consequently to determine their oligomeric state. A comparison between the relative hydrodynamic volume of the OgLuc variants C1+A4E and 9B8 was made by gel filtration chromatography. For this analysis, the nucleotide sequence for the OgLuc variants, C1+A4E and 9B8, were cloned into a HQ-Tagged FLEXI® Vector (Promega Corp.) to create a HQHQHQ N-terminally tagged protein that was overexpressed in E. coli KRX cells. The overexpressed proteins were purified using the HISLINK™ Protein Purification System (Promega Corp.) according to manufacturer's instructions. Samples of each individual standard and sample protein were analyzed by gel filtration chromatography, which was performed at 24° C. on an Agilent 1200 HPLC, using a Superdex 200 5/150 GL column (GE Healthcare) with a flow rate of 0.25 mL/min (FIGS. 43A-B). The mobile phase (i.e., running buffer) consisted of 50 mM Tris and 150 mM NaCl, pH 7.5. Protein elution was monitored at 214 and 280 nm. A standard calibration curve was generated using: 1) Ovalbumin, 43 kDa (GE Healthcare), 2) Carbonic Anhydrase, 29 kDa (Sigma) and 3) Myoglobin, 17 kDa (Horse Heart, Sigma). The molecular weights of the purified proteins were calculated directly from the calibration curve.
The relative hydrodynamic volume of the L27V variant was made by gel filtration chromatography. For this analysis, the nucleotide sequence for the L27V variant was cloned into a HaloTag® vector pFN18A (Promega Corp.) to create a HaloTag®-terminally tagged protein that was overexpressed in E. coli KRX cells (Promega Corp.). The overexpressed protein was purified using the HaloTag® Protein Purification System (Promega Corp.) according to manufacturer's instructions. Samples of each individual standard and sample protein were analyzed by gel filtration chromatography performed at 24° C. on an Agilent 1200 HPLC using a Superdex 200 5/150 GL column (GE Healthcare) with a flow rate of 0.25 mL/min (FIG. 56).

Row | Protein | binding result
1 | B1 | binds
2 | B2 | no binding
3 | B3 | no binding
